Target: T1, 重组FABP蛋白(自产，140618) (human, UniProt P05413 1-133, limits assumed)
T1 construct: The coated protein is only called 'recombinant FABP protein'; also called 心型脂肪酸结合蛋白; H-FABP
Test: indirect ELISA, recombinant FABP protein coated, CHO transient supernatant, goat anti-mouse IgG-HRP

T1 sequence (P05413 whole entry): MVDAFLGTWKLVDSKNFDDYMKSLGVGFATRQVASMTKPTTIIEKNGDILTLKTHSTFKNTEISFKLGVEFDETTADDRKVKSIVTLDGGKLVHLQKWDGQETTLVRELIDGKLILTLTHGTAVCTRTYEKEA

B1: Anti-FABP 8F3 重组抗体 (抗人心型脂肪酸结合蛋白的重组抗体) (antibody, V domains shown)
VH: QVQLQQPGADLVRPGASVKLSCKTSGYSFTGYFMNWVKQRPGQGLEWIGMIHASDSSTRLNQKFKDKATLTVDKSSTTVYMQFSSPTSEDSAVYYCARGIRDFAYWGQGTLVTVSA
VL: DIVMTQSQKFMSTSVGDRVSITCKASNNIASSVAWYQLRPGQSPKALIYSPTYRYSGIPDRFTGSGSGTDFTLTISNVQSEDLAEYFCQQYNSYPLSFGSGTKLEIK
B1 was tested, and the “OD450 (reference 630 nm) at 1000-fold dilution of the supernatant” value was greater than 1 OD.

Source: CN111363035A (DONGGUAN PENGZHI BIOTECHNOLOGY CO LTD, dated 2020)
